Data from US20120039802A1 (published 2012).

Each binder was assayed against T1, cMet-Fc fusion protein (extracellular domain of the cMet receptor expressed as an Fc-fusion protein) (human, UniProt P08581 25-932) (assay: phage ELISA on cMet-Fc, competitor HGF 100 ng/mL).
T1 construct: extracellular domain; also called soluble cMet-Fc-fusion protein; soluble cMet receptor; not shown: Fc part
How it was run: (§1)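 Plates coated with 0.5 μg/mL cMet-Fc, with TRAIL-Fc as background, then blocked with 3% BSA. Bound phage detected with HRP anti-M13 antibody.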

T1 sequence (P08581 25-932): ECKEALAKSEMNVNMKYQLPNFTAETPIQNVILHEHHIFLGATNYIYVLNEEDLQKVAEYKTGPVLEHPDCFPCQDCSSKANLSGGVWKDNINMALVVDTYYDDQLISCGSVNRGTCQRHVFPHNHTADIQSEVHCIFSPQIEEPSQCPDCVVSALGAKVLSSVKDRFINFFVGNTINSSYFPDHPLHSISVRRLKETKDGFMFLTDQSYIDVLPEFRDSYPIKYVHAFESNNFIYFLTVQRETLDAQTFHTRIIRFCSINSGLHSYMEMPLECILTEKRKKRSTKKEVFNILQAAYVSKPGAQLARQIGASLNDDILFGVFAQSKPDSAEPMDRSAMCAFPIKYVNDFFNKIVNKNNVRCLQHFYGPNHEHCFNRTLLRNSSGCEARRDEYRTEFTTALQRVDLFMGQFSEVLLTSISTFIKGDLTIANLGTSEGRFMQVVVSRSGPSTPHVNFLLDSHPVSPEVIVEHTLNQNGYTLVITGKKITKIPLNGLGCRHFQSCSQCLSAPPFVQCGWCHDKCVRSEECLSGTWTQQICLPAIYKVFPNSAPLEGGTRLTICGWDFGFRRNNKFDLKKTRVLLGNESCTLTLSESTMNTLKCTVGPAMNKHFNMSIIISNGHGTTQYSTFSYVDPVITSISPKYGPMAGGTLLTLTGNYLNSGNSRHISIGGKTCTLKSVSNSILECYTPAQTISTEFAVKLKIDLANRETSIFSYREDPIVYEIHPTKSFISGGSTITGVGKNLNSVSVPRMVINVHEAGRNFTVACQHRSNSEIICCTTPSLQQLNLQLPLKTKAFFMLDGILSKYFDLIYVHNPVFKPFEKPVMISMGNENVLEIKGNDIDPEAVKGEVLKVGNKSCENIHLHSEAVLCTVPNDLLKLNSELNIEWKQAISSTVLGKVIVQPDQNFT

Compared with AQDLKPWTAGWEPPWLWTDRGP [104-C09 peptide-displaying phage (SEQ ID NO: 461)], AQHQYGQMMVLHIQYDMGEFIP [117-F08 peptide-displaying phage (SEQ ID NO: 462)] is higher in “% of binding in the absence of HGF” value: 64% for the first, 102% for the second.

First: AQSPYIFPIDDSGRQIFVIQWG [76-D09 peptide-displaying phage (SEQ ID NO: 463)]
Second: AQVPDWLSAVVIEKLIEYGMMV [93-C08 peptide-displaying phage (SEQ ID NO: 464)]
The “% of binding in the absence of HGF” value of the first is lower: 79% for the first, 101% for the second.

Going from AGWWSCQWELNVCIWQGT [484-D08 peptide-displaying phage (SEQ ID NO: 016)] to AQFDRYWHFAWMDVSFSSGQSG [92-B05 peptide-displaying phage (SEQ ID NO: 465)], the “% of binding in the absence of HGF” value falls from 105% to 94%.

AQKETWEFFDIVYGSGWKFNSP [116-H02 peptide-displaying phage (SEQ ID NO: 466)] and AQHSVQRQMDVWMPVQFMAGFT [02-B08 peptide-displaying phage (SEQ ID NO: 467)] are the same in “% of binding in the absence of HGF” value: 84% for the first, 84% for the second.

Going from AQEWQTWTWNMIEVISENKTP [117-F03 peptide-displaying phage (SEQ ID NO: 468)] to AQGFELWVDHTRNFFIAISP [127-A07 peptide-displaying phage (SEQ ID NO: 469)], the “% of binding in the absence of HGF” value falls from 104% to 101%.

First: AQAYEWWADESIFNHGYYWGHQ [94-B08 peptide-displaying phage (SEQ ID NO: 470)]
Second: AQDPGFSKHSMGHGYPSKMNWG [115-G02 peptide-displaying phage (SEQ ID NO: 471)]
The “% of binding in the absence of HGF” value of the first is higher: 111% for the first, 59% for the second.

Going from AQEWEREYFVDGFWGSWFGIPH [130-E10 peptide-displaying phage (SEQ ID NO: 472)] to AQMGHHWDVQWDYKLFHVARGD [136-D01 peptide-displaying phage (SEQ ID NO: 473)], the “% of binding in the absence of HGF” value falls from 100% to 85%.

First: AQELFQILEKQMWSDFMEWATP [15-D02 peptide-displaying phage (SEQ ID NO: 474)]
Second: AGYYHCIDDFPQCKWMGT [482-D02 peptide-displaying phage (SEQ ID NO: 017)]
The “% of binding in the absence of HGF” value of the first is higher: 97% for the first, 66% for the second.

Each binder was assayed against T1, cMet-Fc fusion protein (extracellular …) (assay: phage ELISA, cMet-Fc vs TRAIL-Fc).
How it was run: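 Specificity check: phage displaying peptides incubated 2 h at room temperature on wells coated with 0.5 μg/mL cMet-Fc versus TRAIL-Fc, after blocking with 3% BSA/PBST. HRP-anti-M13 antibody detected binding phage.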

First: AQDLKPWTAGWEPPWLWTDRGP [104-C09 peptide-displaying phage (SEQ ID NO: 461)]
Second: AQHQYGQMMVLHIQYDMGEFIP [117-F08 peptide-displaying phage (SEQ ID NO: 462)]
The “Protein ELISA (fold over background)” value of the first is higher: 5 fold for the first, 4.5 fold for the second.

AQSPYIFPIDDSGRQIFVIQWG [76-D09 peptide-displaying phage (SEQ ID NO: 463)] and AQVPDWLSAVVIEKLIEYGMMV [93-C08 peptide-displaying phage (SEQ ID NO: 464)] are the same in “Protein ELISA (fold over background)” value: 4.4 fold for the first, 4.4 fold for the second.

Compared with AGWWSCQWELNVCIWQGT [484-D08 peptide-displaying phage (SEQ ID NO: 016)], AQFDRYWHFAWMDVSFSSGQSG [92-B05 peptide-displaying phage (SEQ ID NO: 465)] is higher in “Protein ELISA (fold over background)” value: 4.1 fold for the first, 4.3 fold for the second.

Going from AQKETWEFFDIVYGSGWKFNSP [116-H02 peptide-displaying phage (SEQ ID NO: 466)] to AQHSVQRQMDVWMPVQFMAGFT [02-B08 peptide-displaying phage (SEQ ID NO: 467)], the “Protein ELISA (fold over background)” value falls from 4 fold to 3.9 fold.

AQEWQTWTWNMIEVISENKTP [117-F03 peptide-displaying phage (SEQ ID NO: 468)] and AQGFELWVDHTRNFFIAISP [127-A07 peptide-displaying phage (SEQ ID NO: 469)] are the same in “Protein ELISA (fold over background)” value: 3.8 fold for the first, 3.8 fold for the second.

Compared with AQAYEWWADESIFNHGYYWGHQ [94-B08 peptide-displaying phage (SEQ ID NO: 470)], AQDPGFSKHSMGHGYPSKMNWG [115-G02 peptide-displaying phage (SEQ ID NO: 471)] is lower in “Protein ELISA (fold over background)” value: 3.8 fold for the first, 3.7 fold for the second.

AQEWEREYFVDGFWGSWFGIPH [130-E10 peptide-displaying phage (SEQ ID NO: 472)] and AQMGHHWDVQWDYKLFHVARGD [136-D01 peptide-displaying phage (SEQ ID NO: 473)] are the same in “Protein ELISA (fold over background)” value: 3.7 fold for the first, 3.7 fold for the second.

First: AQELFQILEKQMWSDFMEWATP [15-D02 peptide-displaying phage (SEQ ID NO: 474)]
Second: AGYYHCIDDFPQCKWMGT [482-D02 peptide-displaying phage (SEQ ID NO: 017)]
The “Protein ELISA (fold over background)” value of the first is lower: 3.6 fold for the first, 3.9 fold for the second.

The binders below were run against T1, cMet-Fc fusion protein (extracellular …) (assay: phage ELISA on cMet-Fc, competitor HGF 500 ng/mL).
How it was run: as §1

Compared with AQDLKPWTAGWEPPWLWTDRGP [104-C09 peptide-displaying phage (SEQ ID NO: 461)], AQHQYGQMMVLHIQYDMGEFIP [117-F08 peptide-displaying phage (SEQ ID NO: 462)] is higher in “% of binding in the absence of HGF” value: 50% for the first, 270% for the second.

First: AQSPYIFPIDDSGRQIFVIQWG [76-D09 peptide-displaying phage (SEQ ID NO: 463)]
Second: AQVPDWLSAVVIEKLIEYGMMV [93-C08 peptide-displaying phage (SEQ ID NO: 464)]
The “% of binding in the absence of HGF” value of the first is lower: 87% for the first, 96% for the second.

First: AGWWSCQWELNVCIWQGT [484-D08 peptide-displaying phage (SEQ ID NO: 016)]
Second: AQFDRYWHFAWMDVSFSSGQSG [92-B05 peptide-displaying phage (SEQ ID NO: 465)]
The “% of binding in the absence of HGF” value of the first is lower: 90% for the first, 94% for the second.

Going from AQKETWEFFDIVYGSGWKFNSP [116-H02 peptide-displaying phage (SEQ ID NO: 466)] to AQHSVQRQMDVWMPVQFMAGFT [02-B08 peptide-displaying phage (SEQ ID NO: 467)], the “% of binding in the absence of HGF” value rises from 72% to 96%.

Going from AQEWQTWTWNMIEVISENKTP [117-F03 peptide-displaying phage (SEQ ID NO: 468)] to AQGFELWVDHTRNFFIAISP [127-A07 peptide-displaying phage (SEQ ID NO: 469)], the “% of binding in the absence of HGF” value rises from 93% to 107%.

First: AQAYEWWADESIFNHGYYWGHQ [94-B08 peptide-displaying phage (SEQ ID NO: 470)]
Second: AQDPGFSKHSMGHGYPSKMNWG [115-G02 peptide-displaying phage (SEQ ID NO: 471)]
The “% of binding in the absence of HGF” value of the first is higher: 121% for the first, 0% for the second.

Going from AQEWEREYFVDGFWGSWFGIPH [130-E10 peptide-displaying phage (SEQ ID NO: 472)] to AQMGHHWDVQWDYKLFHVARGD [136-D01 peptide-displaying phage (SEQ ID NO: 473)], the “% of binding in the absence of HGF” value rises from 92% to 149%.

Going from AQELFQILEKQMWSDFMEWATP [15-D02 peptide-displaying phage (SEQ ID NO: 474)] to AGYYHCIDDFPQCKWMGT [482-D02 peptide-displaying phage (SEQ ID NO: 017)], the “% of binding in the absence of HGF” value falls from 118% to 44%.

The binders below were run against T2, human cMet expressed on 3T3 cells (human, UniProt P08581 25-1390) (assay: whole cell phage ELISA, 3T3 human cMet vs 3T3).
T2 construct: whole, on cells; cells fixed with glutaraldehyde; also called cell surface-expressed human cMet; 3T3 cells that over-express human cMet
How it was run: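 Bound phage was detected with an HRP-conjugated anti-M13 antibody after PBST washes. The cells were cMet-over-expressing 3T3, read against plain 3T3.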

T2 sequence (P08581 25-1390): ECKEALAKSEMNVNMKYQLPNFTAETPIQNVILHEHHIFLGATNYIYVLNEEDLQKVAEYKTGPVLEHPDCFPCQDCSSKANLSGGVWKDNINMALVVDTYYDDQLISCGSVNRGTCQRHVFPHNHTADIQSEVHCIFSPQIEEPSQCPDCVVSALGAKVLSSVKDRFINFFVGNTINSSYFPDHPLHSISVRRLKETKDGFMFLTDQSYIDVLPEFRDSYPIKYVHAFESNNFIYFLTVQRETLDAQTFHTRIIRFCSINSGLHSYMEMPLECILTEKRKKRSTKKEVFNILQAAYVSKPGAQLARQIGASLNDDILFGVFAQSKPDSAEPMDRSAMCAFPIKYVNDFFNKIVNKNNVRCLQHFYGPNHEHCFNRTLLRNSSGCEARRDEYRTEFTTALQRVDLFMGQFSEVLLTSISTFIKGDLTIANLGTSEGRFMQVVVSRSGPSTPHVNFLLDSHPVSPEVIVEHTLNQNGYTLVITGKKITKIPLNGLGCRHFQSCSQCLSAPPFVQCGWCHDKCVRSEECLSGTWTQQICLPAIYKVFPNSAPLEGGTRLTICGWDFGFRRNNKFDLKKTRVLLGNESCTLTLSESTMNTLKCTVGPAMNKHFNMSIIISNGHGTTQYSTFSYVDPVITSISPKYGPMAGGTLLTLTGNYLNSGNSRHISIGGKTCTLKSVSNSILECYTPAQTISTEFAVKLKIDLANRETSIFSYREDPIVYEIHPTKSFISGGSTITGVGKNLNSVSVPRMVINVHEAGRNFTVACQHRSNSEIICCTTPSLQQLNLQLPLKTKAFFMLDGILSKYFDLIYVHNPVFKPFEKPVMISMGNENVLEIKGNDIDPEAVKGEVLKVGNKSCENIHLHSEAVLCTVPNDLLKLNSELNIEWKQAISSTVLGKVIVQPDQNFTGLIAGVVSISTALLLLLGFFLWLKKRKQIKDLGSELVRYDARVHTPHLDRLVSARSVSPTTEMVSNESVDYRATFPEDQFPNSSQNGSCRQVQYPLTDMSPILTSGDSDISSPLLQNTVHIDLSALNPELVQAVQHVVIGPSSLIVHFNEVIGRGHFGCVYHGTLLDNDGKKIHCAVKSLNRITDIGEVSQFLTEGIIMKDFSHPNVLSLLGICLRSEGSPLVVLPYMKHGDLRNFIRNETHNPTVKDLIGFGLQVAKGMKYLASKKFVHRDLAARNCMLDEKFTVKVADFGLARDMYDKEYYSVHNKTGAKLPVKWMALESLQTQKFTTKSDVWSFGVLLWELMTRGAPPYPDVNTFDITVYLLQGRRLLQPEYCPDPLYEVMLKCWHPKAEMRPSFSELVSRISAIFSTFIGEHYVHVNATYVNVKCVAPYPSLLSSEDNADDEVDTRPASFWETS

First: AQDLKPWTAGWEPPWLWTDRGP [104-C09 peptide-displaying phage (SEQ ID NO: 461)]
Second: AQHQYGQMMVLHIQYDMGEFIP [117-F08 peptide-displaying phage (SEQ ID NO: 462)]
The “WC ELISA (fold over background)” value of the first is higher: 1.3 fold for the first, 1.27 fold for the second.

Going from AQSPYIFPIDDSGRQIFVIQWG [76-D09 peptide-displaying phage (SEQ ID NO: 463)] to AQVPDWLSAVVIEKLIEYGMMV [93-C08 peptide-displaying phage (SEQ ID NO: 464)], the “WC ELISA (fold over background)” value rises from 1.23 fold to 1.37 fold.

First: AGWWSCQWELNVCIWQGT [484-D08 peptide-displaying phage (SEQ ID NO: 016)]
Second: AQFDRYWHFAWMDVSFSSGQSG [92-B05 peptide-displaying phage (SEQ ID NO: 465)]
The “WC ELISA (fold over background)” value of the first is higher: 1.33 fold for the first, 1.2 fold for the second.

Compared with AQKETWEFFDIVYGSGWKFNSP [116-H02 peptide-displaying phage (SEQ ID NO: 466)], AQHSVQRQMDVWMPVQFMAGFT [02-B08 peptide-displaying phage (SEQ ID NO: 467)] is higher in “WC ELISA (fold over background)” value: 1.23 fold for the first, 1.3 fold for the second.

Going from AQEWQTWTWNMIEVISENKTP [117-F03 peptide-displaying phage (SEQ ID NO: 468)] to AQGFELWVDHTRNFFIAISP [127-A07 peptide-displaying phage (SEQ ID NO: 469)], the “WC ELISA (fold over background)” value falls from 1.4 fold to 1.2 fold.

First: AQAYEWWADESIFNHGYYWGHQ [94-B08 peptide-displaying phage (SEQ ID NO: 470)]
Second: AQDPGFSKHSMGHGYPSKMNWG [115-G02 peptide-displaying phage (SEQ ID NO: 471)]
The “WC ELISA (fold over background)” value of the first is lower: 1.2 fold for the first, 1.27 fold for the second.

Compared with AQEWEREYFVDGFWGSWFGIPH [130-E10 peptide-displaying phage (SEQ ID NO: 472)], AQMGHHWDVQWDYKLFHVARGD [136-D01 peptide-displaying phage (SEQ ID NO: 473)] is lower in “WC ELISA (fold over background)” value: 1.8 fold for the first, 1.23 fold for the second.

Compared with AQELFQILEKQMWSDFMEWATP [15-D02 peptide-displaying phage (SEQ ID NO: 474)], AGYYHCIDDFPQCKWMGT [482-D02 peptide-displaying phage (SEQ ID NO: 017)] is higher in “WC ELISA (fold over background)” value: 1.23 fold for the first, 1.37 fold for the second.
